From article PMC6778029 (Molecular cell, 2019)

B1: recombinant hnRNPG RGG1mut (natural protein, human, UniProt P38159 1-391, looked up)
chain: MVEADRPGKLFIGGLNTETNEKALEAVFGKYGRIVEVLLMKDRETNKSRGFAFVTFESPADAKDAARDMNGKSLDGKAIKVEQATKPSFESGRRGPPPPPRSRGPPRGLAGGAGGSGGTAGPPSAGGHMDDGGYSMNFNMSSSRGPLPVKRGPPPRSGGPPPKRSAPSGPVRSSSGMGGRAPVSRGRDSYGGPPRREPLPSRRDVYLSPRDDGYSTKDSYSSRDYPSSRDTRDYAPPPRDYTYRDYGHSSSRDDYPSRGYSDRDGYGRDRDYSDHPSGGSYRDSYESYGNSRSAPPTRGPPPSYGGSSRYDDYSSSRDGYGGSRDSYSSSRSDLYSSGRDRVGRQERGLPPSMERGYPPPRDSYSSSSRGAPRGGGRGGSRSDRGGGRSRY
B2: recombinant hnRNPG RRMmut (natural protein, human, UniProt P38159 1-391, looked up)
chain: MVEADRPGALAIGGLNTETNEKALEAVFGKYGRIVEVLLMKDRETNKSAGAAAVTFESPADAKDAARDMNGKSLDGKAIKVEQATKPSFESGRRGPPPPPRSRGPPRGLRGGRGGSGGTRGPPSRGGHMDDGGYSMNFNMSSSRGPLPVKRGPPPRSGGPPPKRSAPSGPVRSSSGMGGRAPVSRGRDSYGGPPRREPLPSRRDVYLSPRDDGYSTKDSYSSRDYPSSRDTRDYAPPPRDYTYRDYGHSSSRDDYPSRGYSDRDGYGRDRDYSDHPSGGSYRDSYESYGNSRSAPPTRGPPPSYGGSSRYDDYSSSRDGYGGSRDSYSSSRSDLYSSGRDRVGRQERGLPPSMERGYPPPRDSYSSSSRGAPRGGGRGGSRSDRGGGRSRY
B3: recombinant hnRNPG RGG2mut (natural protein, human, UniProt P38159 1-391, looked up)
chain: MVEADRPGKLFIGGLNTETNEKALEAVFGKYGRIVEVLLMKDRETNKSRGFAFVTFESPADAKDAARDMNGKSLDGKAIKVEQATKPSFESGRRGPPPPPRSRGPPRGLRGGRGGSGGTRGPPSRGGHMDDGGYSMNFNMSSSRGPLPVKRGPPPRSGGPPPKRSAPSGPVRSSSGMGGRAPVSRGRDSYGGPPRREPLPSRRDVYLSPRDDGYSTKDSYSSRDYPSSRDTRDYAPPPRDYTYRDYGHSSSRDDYPSRGYSDRDGYGRDRDYSDHPSGGSYRDSYESYGNSRSAPPTRGPPPSYGGSSRYDDYSSSRDGYGGSRDSYSSSRSDLYSSGRDRVGRQERGLPPSMERGYPPPRDSYSSSSAGAPAGGGAGGSRSDRGGGRSRY

Target: the molecule itself
Test: dynamic light scattering

| Protein | binding result |
| --- | --- |
| B1 | binds |
| B2 | binds |
| B3 | binds |
